Test results from PMC2198996.

Target: HA1.7 TCR-β chain (human)
Test: co-IP

- stoichiometry N: 1
Substance: HA1.7 TCR-α chain
